Values quoted from earlier work in article PMC7531836.

Biological target: C5 (Homo sapiens) (UniProt P01031)

Kd: 0.12 nM
Substance: eculizumab
